Drawing on paper PMC8280106 (2021), this text covers Kd for two molecules.

In test [1] the target is Trefoil factor 3 (TFF3), recombinant mature form (residues 22-80) (human). Description: SPR; Biacore T200; TFF peptides immobilised on a CM5 chip (10 mM sodium acetate pH 4.0); purified proteins as analytes at 30 µL/min, 2 min association; multiple cycle kinetics, 1:1 model. A general note: SPR reads the build-up and loss of mass on a sensor chip optically.
For test [2], the target named is T1, murine TFF3 (mTFF3) (mouse, UniProt Q62395 23-81).
T1 chain: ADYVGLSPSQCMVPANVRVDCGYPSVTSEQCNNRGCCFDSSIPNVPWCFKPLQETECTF
Description: SPR.

“extracellular domain of CD147 (CD147^ECD) (domain or fragment)”: the Kd (usually the free concentration of one partner at which half of the binding sites on the other are occupied at equilibrium, for simple one-to-one binding) in test [1] amounted to 2030 nM.

B1: murine CD147^ECD (mCD147^ECD) (domain or fragment)
chain: AAGTIQTSVQEVNSKTQLTCSLNSSGVDIVGHRWMRGGKVLQEDTLPDLHTKYIVDADDRSGEYSCIFLPEPVGRSEINVEGPPRIKVGKKSEHSSEGELAKLVCKSDASYPPITDWFWFKTSDTGEEEAITNSTEANGKYVVVSTPEKSQLTISNLDVNVDPGTYVCNATNAQGTTRETISLRVRSR
In test [2], B1 showed a Kd of 2510 nM.
